This note sets out measurements from article PMC7508885.

This series relates to N[C@@H](Cc1ccc(O)cc1)C(=O)O. In words: ATP:PPi exchange reaction. It counts as biochemical, Pseudomonas aeruginosa. As to conditions: other: other substrate (Tyr or ATP) held at 2 mM; enzyme 0.4 μM; pH 7.5; 37.0 °C.

For “P. aeruginosa TyrRS-S (Pseudomonas aeruginosa PAO1)”, the Km is 172 µM and the kcat was determined as 3.8 s⁻¹.

On to “P. aeruginosa TyrRS-Z (Pseudomonas aeruginosa PAO1)”, for which the Km is 29 µM and the kcat was determined as 3.1 s⁻¹.

The Km is the substrate concentration at which the rate is half of its maximum. For orientation: kcat means the maximal rate divided by the concentration of active sites.
